Legend:
[1] = biological target: T1, HER3 (human epidermal growth factor receptor 3) (human, UniProt P21860 20-1342); assay: FACS (MFI) on HCC1569 cells, high HER3 expression; anti-human IgG-Fc-PE secondary
T1 construct: whole, on cells; no recombinant HER3 was used; also called ErbB3; ErbB-3
Description: (§1) The cells were incubated at 4° C. for 60 min and centrifuged at 1000 rpm for 5 min. […] The cells were washed 3 times with pre-cooled PBS (pH 7.4) and resuspended in 100 μL of PBS (pH 7.4), and then the fluorescence signals were analyzed and detected using a flow cytometer (Sartorius, iQUE). […] Data were analyzed using GraphPad Prism5.

[2] = biological target: T1, HER3 (human epidermal growth factor …); assay: cell-based or functional assay
[3] = biological target: T1, HER3 (human epidermal growth factor …); assay: FACS (MFI) on SW620 cells, low HER3 expression; anti-human IgG-Fc-PE secondary
Description: as §1

[4] = biological target: T1, HER3 (human epidermal growth factor …); assay: FACS (MFI) on MDA-MB-468 cells, medium HER3 expression; anti-human IgG-Fc-PE secondary
Description: as §1

[5] = biological target: T1, HER3 (human epidermal growth factor …); assay: FACS (MFI) on BT474 cells, high HER3 expression; anti-human IgG-Fc-PE secondary
Description: as §1

[6] = biological target: T1, HER3 (human epidermal growth factor …); assay: FACS (MFI) on MCF-7 cells, high HER3 expression; anti-human IgG-Fc-PE secondary
Description: as §1

[7] = biological target: T1, HER3 (human epidermal growth factor …); assay: FACS (MFI) on JIMT-1 cells, medium HER3 expression; anti-human IgG-Fc-PE secondary
Description: as §1

B1: Patritumab-eribulin-D2 (antibody, human IgG1, kappa, V domains shown)
VH: QVQLQQWGAGLLKPSETLSLTCAVYGGSFSGYYWSWIRQPPGKGLEWIGEINHSGSTNYNPSLKSRVTISVETSKNQFSLKLSSVTAADTAVYYCARDKWTWYFDLWGRGTLVTVSS
VL: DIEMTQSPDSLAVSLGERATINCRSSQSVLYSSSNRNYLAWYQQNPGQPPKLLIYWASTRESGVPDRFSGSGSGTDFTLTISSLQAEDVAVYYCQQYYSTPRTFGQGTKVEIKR
modifications: MC-GGFG-eribulin (compound III-1) conjugated to cysteine sulfhydryls freed by TCEP reduction of the antibody's disulfide bonds; positions not given; average DAR 2.6 per antibody
notes: also called patritumab-eribulin conjugate with a DAR of 2.6
[1]
  EC50: 1.42 nM
[2]
  Endocytosis EC50 (nM), BT474 cells, pHrodo Green-labelled anti-human IgG Fc, FACS: 1.07 nM
  Endocytosis EC50 (nM), MCF-7 cells, pHrodo Green-labelled anti-human IgG Fc, FACS: 0.58 nM
  Endocytosis EC50 (nM), NCI-N87 cells, pHrodo Green-labelled anti-human IgG Fc, FACS: 4.5 nM
[3]
  EC50: 1.89 nM
[4]
  EC50: 1.56 nM
[5]
  EC50: 3.05 nM
[6]
  EC50: 0.855 nM
[7]
  EC50: 1.59 nM

B2: Patritumab-eribulin-D4 (antibody, human IgG1, kappa, V domains shown)
VH: QVQLQQWGAGLLKPSETLSLTCAVYGGSFSGYYWSWIRQPPGKGLEWIGEINHSGSTNYNPSLKSRVTISVETSKNQFSLKLSSVTAADTAVYYCARDKWTWYFDLWGRGTLVTVSS
VL: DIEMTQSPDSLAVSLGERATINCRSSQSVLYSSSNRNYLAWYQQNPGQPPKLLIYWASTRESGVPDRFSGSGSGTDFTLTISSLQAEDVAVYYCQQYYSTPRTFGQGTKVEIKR
modifications: MC-GGFG-eribulin (compound III-1) conjugated to cysteine sulfhydryls freed by TCEP reduction of the antibody's disulfide bonds; positions not given; average DAR 4.0-4.2 per antibody
notes: also called patritumab-eribulin conjugate with DAR of 4.0-4.2
[1]
  EC50: 1.49 nM
[2]
  Endocytosis EC50 (nM), BT474 cells, pHrodo Green-labelled anti-human IgG Fc, FACS: 0.962 nM
  Endocytosis EC50 (nM), MCF-7 cells, pHrodo Green-labelled anti-human IgG Fc, FACS: 0.797 nM
  Endocytosis EC50 (nM), NCI-N87 cells, pHrodo Green-labelled anti-human IgG Fc, FACS: 4.72 nM
[3]
  EC50: 1.28 nM
[4]
  EC50: 1.67 nM
[5]
  EC50: 2.78 nM
[6]
  EC50: 0.932 nM
[7]
  EC50: 1.04 nM

B3: Patritumab (antibody, human IgG1, kappa, V domains shown)
VH: QVQLQQWGAGLLKPSETLSLTCAVYGGSFSGYYWSWIRQPPGKGLEWIGEINHSGSTNYNPSLKSRVTISVETSKNQFSLKLSSVTAADTAVYYCARDKWTWYFDLWGRGTLVTVSS
VL: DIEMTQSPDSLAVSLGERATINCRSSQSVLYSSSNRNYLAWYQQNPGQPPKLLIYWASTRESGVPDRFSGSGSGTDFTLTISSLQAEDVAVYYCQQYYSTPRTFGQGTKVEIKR
notes: Naked antibody expressed in Expi-CHO cells and purified by Protein A; also called fully human anti-HER3 monoclonal antibody
[2]
  Endocytosis EC50 (nM), BT474 cells, pHrodo Green-labelled anti-human IgG Fc, FACS: 0.821 nM
  Endocytosis EC50 (nM), MCF-7 cells, pHrodo Green-labelled anti-human IgG Fc, FACS: 0.509 nM
[3]
  EC50: 1.47 nM
[4]
  EC50: 1.3 nM
[5]
  EC50: 3.02 nM
[6]
  EC50: 0.807 nM
[7]
  EC50: 1.51 nM

B4: Patritumab-DDDXd-D8 (antibody, human IgG1, kappa, V domains shown)
VH: QVQLQQWGAGLLKPSETLSLTCAVYGGSFSGYYWSWIRQPPGKGLEWIGEINHSGSTNYNPSLKSRVTISVETSKNQFSLKLSSVTAADTAVYYCARDKWTWYFDLWGRGTLVTVSS
VL: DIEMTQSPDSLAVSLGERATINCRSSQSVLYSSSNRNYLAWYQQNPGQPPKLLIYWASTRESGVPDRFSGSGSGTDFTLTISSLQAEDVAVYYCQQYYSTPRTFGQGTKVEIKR
modifications: MC-GGFG-DDDXd (deuterated MC-GGFG-DXd) conjugated to cysteine sulfhydryls freed by TCEP reduction of the antibody's disulfide bonds; positions not given; average DAR 7.9 per antibody
notes: also called patritumab-DDDXd conjugate with a DAR of 7.9; patritumab-DDDX-D8
[1]
  EC50: 1.16 nM
[2]
  Endocytosis EC50 (nM), BT474 cells, pHrodo Green-labelled anti-human IgG Fc, FACS: 0.859 nM
  Endocytosis EC50 (nM), MCF-7 cells, pHrodo Green-labelled anti-human IgG Fc, FACS: 0.869 nM
  Endocytosis EC50 (nM), NCI-N87 cells, pHrodo Green-labelled anti-human IgG Fc, FACS: 56.8 nM
[3]
  EC50: 1.37 nM
[4]
  EC50: 1.7 nM
[5]
  EC50: 2.68 nM
[6]
  EC50: 0.77 nM
[7]
  EC50: 1.3 nM

B5: Patritumab-eribulin-D8 (antibody, human IgG1, kappa, V domains shown)
VH: QVQLQQWGAGLLKPSETLSLTCAVYGGSFSGYYWSWIRQPPGKGLEWIGEINHSGSTNYNPSLKSRVTISVETSKNQFSLKLSSVTAADTAVYYCARDKWTWYFDLWGRGTLVTVSS
VL: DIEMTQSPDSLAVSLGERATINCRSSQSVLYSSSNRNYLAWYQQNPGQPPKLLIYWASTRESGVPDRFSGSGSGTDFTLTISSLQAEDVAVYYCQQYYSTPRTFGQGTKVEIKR
modifications: MC-GGFG-eribulin (compound III-1) conjugated to cysteine sulfhydryls freed by TCEP reduction of the antibody's disulfide bonds; positions not given; average DAR 7.6 per antibody
notes: also called patritumab-eribulin conjugate with a DAR of 7.6
[1]
  EC50: 1.49 nM
[2]
  Endocytosis EC50 (nM), BT474 cells, pHrodo Green-labelled anti-human IgG Fc, FACS: 0.931 nM
  Endocytosis EC50 (nM), MCF-7 cells, pHrodo Green-labelled anti-human IgG Fc, FACS: 1.25 nM
  Endocytosis EC50 (nM), NCI-N87 cells, pHrodo Green-labelled anti-human IgG Fc, FACS: 9.46 nM
[3]
  EC50: 1.74 nM
[4]
  EC50: 3.31 nM
[5]
  EC50: 2.85 nM
[6]
  EC50: 1.02 nM
[7]
  EC50: 1.73 nM

Source: patent publication US20250018052A1 (CHIA TAI TIANQING PHARMACEUTICAL GROUP, published 2025)
